{
  "source": "patent US8580497B2",
  "about": "“Methods for detection of the oncogenic T1796A B-Raf mutation” (The Wellcome Trust, priority 2001, dated 2013)",
  "key": {"cellular Ras (human)": {"molecular_target": "cellular Ras (human)", "test": "cell-based or functional assay"}, "ERK in WM266.4 cells": {"system": "ERK in WM266.4 cells", "test": "ERK activity, Western blot with ppERK antibody", "assay_type": "cell-based, human", "details": "compound at 10 μM", "protocol": "FIG. 3B. Inhibition of ERK in melanoma cell lines using pharmacological reagents. WM266.4 or A375P cells were treated with 10 μM U0126, 10 μM BAY 43-9006 or DMSO as a control. Equivalent amounts of cellular proteins were resolved on SDS-gels and the levels of active ERK were determined using the ppERK antibody.\nFIG. 6. Ablation of BRAF, but not CRAF blocks ERK activity in melanoma cells. WM-266.4 or Colo 829 cells were treated with a BRAF specific siRNA probe (BRAF), or the scrambled control (sBRAF), or a CRAF specific probe (CRAF), or its scrambled control (sCRAF), or oligofectamine (oligo) or left untreated (control) as indicated. The cells were incubated for the times indicated, and the Colo 829 cells were treated for 24 hours. The levels of ERK activity in equivalent amounts of cell extract was determined by Western blotting with the ppERK antibody.\nIn order to validate BRAF as a target in cancer, it is first tested whether the growth of cells that express activated, mutant forms of BRAF required the RAF-MEK-ERK signaling pathway for growth. To this end, melanoma and colorectal cell lines that harbour mutations in the BRAF gene are treated with pharmacological agents that block signaling through this pathway. Two compounds are tested. One is the compound U0126, which is a MEK inhibitor and which therefore uncouples RAF-ERK signaling in cells (Sebolt-Leopold et al., 1999). […]"}, "ERK in SK-MEL-28": {"system": "ERK in SK-MEL-28", "details": "SK-MEL-28, melanoma, B-Raf V599E", "excerpt": "(§1) The second approach is to examine the effects of the compound U0126, an inhibitor of MEK1/2, the only known substrates for B-Raf."}, "ERK in WM-266-4/WM-115": {"system": "ERK in WM-266-4/WM-115", "details": "WM-266-4/WM-115, melanoma, B-Raf V599D", "excerpt": "as §1"}, "WM-266-4/WM-115": {"system": "WM-266-4/WM-115", "details": "WM-266-4/WM-115, melanoma, B-Raf V599D", "excerpt": "as §1"}, "SK-MEL-28": {"system": "SK-MEL-28", "details": "SK-MEL-28, melanoma, B-Raf V599E", "excerpt": "as §1"}, "ERK in Mawi": {"system": "ERK in Mawi", "details": "colorectal, Ras wt, B-Raf V599E", "excerpt": "as §1"}},
  "data": [
    {"compound": "G463V B-Raf (myc-epitope tagged)", "values": [
      {"measurement": "^V12Ras stimulated kinase activity of B-Raf (immunoprecipitation kinase cascade assay, GST-MEK, GST-ERK and MBP as sequential substrates)", "setting": "oncogenic Ras (V12Ras)", "result": "All five mutants are stimulated by oncogenic Ras (^V12Ras). However, the fold activation for each of the mutants is reduced compared with wild-type B-Raf"}
    ]},
    {"compound": "L596V B-Raf (myc-epitope tagged)", "values": [
      {"measurement": "^V12Ras stimulated kinase activity of B-Raf (immunoprecipitation kinase cascade assay, GST-MEK, GST-ERK and MBP as sequential substrates)", "setting": "oncogenic Ras (V12Ras)", "result": "All five mutants are stimulated by oncogenic Ras (^V12Ras). However, the fold activation for each of the mutants is reduced compared with wild-type B-Raf"}
    ]},
    {"compound": "monoclonal antibody Y13-259", "values": [
      {"measurement": "Y13-259 S-phase inhibition (percentage of cells that do not incorporate BrdU) after micro-injection; A2058 melanoma cells, Ras status blank, B-Raf V599E", "setting": "cellular Ras (human)", "result": 0, "unit": "%"},
      {"measurement": "Y13-259 S-phase inhibition (percentage of cells that do not incorporate BrdU) after micro-injection; CaCO2 colorectal cells, Ras wt, B-Raf wt", "setting": "cellular Ras (human)", "result": 60, "unit": "%"},
      {"measurement": "Y13-259 S-phase inhibition (percentage of cells that do not incorporate BrdU) after micro-injection; DLD1 colorectal cells, Ras K13Asp/wt, B-Raf wt", "setting": "cellular Ras (human)", "result": 40, "unit": "%"},
      {"measurement": "Y13-259 S-phase inhibition (percentage of cells that do not incorporate BrdU) after micro-injection; HCT-116 colorectal cells, Ras K13 Asp, B-Raf wt", "setting": "cellular Ras (human)", "result": 95, "unit": "%"},
      {"measurement": "Y13-259 S-phase inhibition (percentage of cells that do not incorporate BrdU) after micro-injection; HMV11-Riken melanoma cells, Ras status blank, B-Raf wt", "setting": "cellular Ras (human)", "result": 100, "unit": "%"},
      {"measurement": "Y13-259 S-phase inhibition (percentage of cells that do not incorporate BrdU) after micro-injection; HT29 colorectal cells, Ras wt, B-Raf V599E", "setting": "cellular Ras (human)", "result": 15, "unit": "%"},
      {"measurement": "Y13-259 S-phase inhibition (percentage of cells that do not incorporate BrdU) after micro-injection; JW2 colorectal cells, Ras K12, B-Raf wt", "setting": "cellular Ras (human)", "result": 79, "unit": "%"},
      {"measurement": "Y13-259 S-phase inhibition (percentage of cells that do not incorporate BrdU) after micro-injection; LS174T colorectal cells, Ras K12Asp/wt, B-Raf wt", "setting": "cellular Ras (human)", "result": 84, "unit": "%"},
      {"measurement": "Y13-259 S-phase inhibition (percentage of cells that do not incorporate BrdU) after micro-injection; LS411N colorectal cells, Ras status blank, B-Raf V599E (first value)", "setting": "cellular Ras (human)", "result": 0, "unit": "%"},
      {"measurement": "Y13-259 S-phase inhibition (percentage of cells that do not incorporate BrdU) after micro-injection; LS411N colorectal cells, Ras status blank, B-Raf V599E (second value)", "setting": "cellular Ras (human)", "result": 0, "unit": "%"},
      {"measurement": "Y13-259 S-phase inhibition (percentage of cells that do not incorporate BrdU) after micro-injection; Malme melanoma cells, Ras status blank, B-Raf V599E", "setting": "cellular Ras (human)", "result": 0, "unit": "%"},
      {"measurement": "Y13-259 S-phase inhibition (percentage of cells that do not incorporate BrdU) after micro-injection; Mawi colorectal cells, Ras wt, B-Raf V599E", "setting": "cellular Ras (human)", "result": 5, "unit": "%"},
      {"measurement": "Y13-259 S-phase inhibition (percentage of cells that do not incorporate BrdU) after micro-injection; NCI-H2087 NSCLC cell line pair, Ras onc, B-Raf L596V", "setting": "cellular Ras (human)", "result": 77, "unit": "%"},
      {"measurement": "Y13-259 S-phase inhibition (percentage of cells that do not incorporate BrdU) after micro-injection; SK-MEL-28 melanoma cells, Ras b, B-Raf V599E", "setting": "cellular Ras (human)", "result": 4, "unit": "%"},
      {"measurement": "Y13-259 S-phase inhibition (percentage of cells that do not incorporate BrdU) after micro-injection; SK-Mel2 melanoma cells, Ras status blank, B-Raf wt", "setting": "cellular Ras (human)", "result": 70, "unit": "%"},
      {"measurement": "Y13-259 S-phase inhibition (percentage of cells that do not incorporate BrdU) after micro-injection; SW480 colorectal cells, Ras K12, B-Raf wt", "setting": "cellular Ras (human)", "result": 57, "unit": "%"},
      {"measurement": "Y13-259 S-phase inhibition (percentage of cells that do not incorporate BrdU) after micro-injection; SW620 colorectal cells, Ras onc, B-Raf wt", "setting": "cellular Ras (human)", "result": 92, "unit": "%"},
      {"measurement": "Y13-259 S-phase inhibition (percentage of cells that do not incorporate BrdU) after micro-injection; WM-266-4/WM-115 melanoma cells, Ras b, B-Raf V599D", "setting": "cellular Ras (human)", "result": 10, "unit": "%"},
      {"measurement": "Y13-259 S-phase inhibition (percentage of cells that do not incorporate BrdU) after micro-injection; colo205 colorectal cells, Ras wt, B-Raf V599E", "setting": "cellular Ras (human)", "result": 3, "unit": "%"},
      {"measurement": "Y13-259 S-phase inhibition (percentage of cells that do not incorporate BrdU) after micro-injection; colo741 colorectal cells, Ras status blank, B-Raf V599E", "setting": "cellular Ras (human)", "result": 0, "unit": "%"}
    ]},
    {"compound": "G468A B-Raf (myc-epitope tagged)", "values": [
      {"measurement": "^V12Ras stimulated kinase activity of B-Raf (immunoprecipitation kinase cascade assay, GST-MEK, GST-ERK and MBP as sequential substrates)", "setting": "oncogenic Ras (V12Ras)", "result": "All five mutants are stimulated by oncogenic Ras (^V12Ras). However, the fold activation for each of the mutants is reduced compared with wild-type B-Raf"}
    ]},
    {"compound": "G595R B-Raf (myc-epitope tagged)", "values": [
      {"measurement": "^V12Ras stimulated kinase activity of B-Raf (immunoprecipitation kinase cascade assay, GST-MEK, GST-ERK and MBP as sequential substrates)", "setting": "oncogenic Ras (V12Ras)", "result": "^G595RB-Raf is also stimulated by ^V12Ras, but the activation was very weak, probably due to the low starting levels"}
    ]},
    {"compound": "V599E B-Raf (myc-epitope tagged)", "values": [
      {"measurement": "^V12Ras stimulated kinase activity of B-Raf (immunoprecipitation kinase cascade assay, GST-MEK, GST-ERK and MBP as sequential substrates)", "setting": "oncogenic Ras (V12Ras)", "result": "the fold activation for each of the mutants is reduced compared with wild-type B-Raf (See FIG. 1A, B) and is particularly small in the case of ^V599EB-Raf"}
    ]},
    {"compound": "N#CC(=C(/N)Sc1ccccc1N)/C(C#N)=C(\\N)Sc1ccccc1N", "note": "[U0126]", "values": [
      {"measurement": "ERK activity (ppERK Western blot)", "setting": "ERK in WM266.4 cells", "result": "strongly suppressed"},
      {"measurement": "UO/ ERK-inhib", "setting": "ERK in SK-MEL-28", "result": ">90", "unit": "%"},
      {"measurement": "UO/ ERK-inhib", "setting": "ERK in WM-266-4/WM-115", "result": ">90", "unit": "%"},
      {"measurement": "U0 inhibit S", "setting": "WM-266-4/WM-115", "result": ">99", "unit": "%"},
      {"measurement": "U0 inhibit S", "setting": "SK-MEL-28", "result": 98, "unit": "%"},
      {"measurement": "UO/ ERK-inhib", "setting": "ERK in Mawi", "result": ">90", "unit": "%"}
    ]},
    {"compound": "CNC(=O)c1cc(Oc2ccc(NC(=O)Nc3ccc(Cl)c(C(F)(F)F)c3)cc2)ccn1", "note": "[BAY 43-9006]", "values": [
      {"measurement": "ERK activity (ppERK Western blot)", "setting": "ERK in WM266.4 cells", "result": "strongly suppressed"}
    ]}
  ]
}
